Here are results for two sequences from the Immune Epitope Database (IEDB).

Broadly, the Kd is a measure of binding affinity in units of concentration.

Some targets named below: HLA-A*03:01; HLA-A*11:01; HLA-A*31:01; HLA-A*33:01; HLA-A*68:01.
What all share (experiment): IEDB peptide-MHC binding, purified MHC/competitive/radioactivity; filed as Kd, often an IC50 or EC50 that approximates it; ≥ and ≤ were set here for values at or beyond the usual limits of such assays
Common to all, as to conditions: source organism: Homo sapiens

On to MSLQRQFLR, for which the Kd in the experiment with HLA-A*03:01 worked out at 54 nM; with HLA-A*11:01, 8.3 nM; with HLA-A*31:01, 8.3 nM; with HLA-A*33:01, 14 nM; with HLA-A*68:01, 8.5 nM.

Regarding LLGPGRPYR, the Kd worked out at 570 nM with HLA-A*03:01; 656 nM with HLA-A*11:01; 11 nM in the experiment with HLA-A*31:01; 106 nM with HLA-A*33:01; 1090 nM in the experiment with HLA-A*68:01.
